Assay results: the supplement of paper PMC9170038

test system: K4 kissing-loop RNA reporter; experiment: apparent KD of K4 kissing-loop reporter; higher = weaker reporter binding; conditions: Eterna round: R107; input ligand: arginine 13.2 mM
Procedure: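 RNA-MaP round R107: designed RNA switches with theophylline, tryptophan, arginine or FMN aptamers are transcribed on-chip within common flanks. They are titrated with a labelled K4 kissing-loop RNA reporter in RNA-MaP buffer (100 mM Tris pH 7.5, 80 mM KCl, 4 mM MgCl2), without ligand or with the indicated ligand. Median apparent KD per design.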
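Also: bound reporter read as fluorescence of individual clusters on recovered sequencing chips by microscopy, with normalized cluster intensities fitted with a binding model.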

Sequence | apparent KD of K4 kissing-loop reporter
CUGGGUUGACGAAAAGUCAACAAAUGAGAAGGAGCGCACGAAAGUGCAGGUAGGUCGCUCAAUCCAGUGAUGUUGGAUCAUCCAG [#SwitchBubble 12 #K4Late] | 601 nM
AUGUUUUAUAAACUCAUGGUUUCGACAGAUACCAGCUUCGAGAGGAGCCCUUGGCAGCUGCAUGAGUGAUGUUCAUGUACGAAGA [KL-XTheoA7] | 356 nM
UGCGCUGCCUGAGGAUAUAGAAACGAGUGAUGUUCGUGGAUAAGAGCCAGUGAUGUUGGGUUAUUUCUAGAAGGCAGGCAAAGUA [Exclusion FMN B GF7] | 98.2 nM
UGUCAUUGGUCGGCCGCCACUCCAUAACGAGUGAUGUUCUAAAAGACGGAUCGAAAGAUCUGUCGGAGGACCGGGACCGAUGACU [FiskerMod 6 - Jieux - Same State - Tryptophan B] | 308 nM
CCUGCCAGCACGGCCGCCACUUCUAUUGUAUCUAUUUUUGUAAUCCUUUAGGAGUGAUGUUUUUAAAGGACCGGGUGAUGGCUGA [theeternabot_exclusion_KL_Trp_B_14] | 248 nM
AGAAGAGUGAUGUUCUUCUAUAUCUCAGAAGGAGCGACAUUAAUGUCAGGUAGGUCGCUGAGAUGAAAUCUCACACAGAUCUUGG [Arg A SS t8a] | 154 nM
UCGCAUCUCAGAAGGAGCGACAGUGAUUCUGAUAGAAAUCUGAGUGAUGUUCAGAACAGCUGUCAGGUAGGUCGCUGAGAUGCGA [Arg B Ex t8] | 384 nM
AAGGGCGGGACUUCCUCGCCGGAUAGAGAUACCAGCCCUGCAAAGGGCCCUUGGCAGCUCACUGACCUCAGUGAUGUUGAGGUUC [Maanveri] | 210 nM
CCCGCGUCGUUAGUGAUGUUGACUUCUGAUACCAGUCGCAGGUAGGACCCUUGGCAGCAGCAGUUUUGUUAUAUGUAGGAUCCAG [theeternabot_exclusion_KL_Theo_A_36] | 201 nM
UCCUACGAGGUAACGUGGAUAUCUCGUUGCAAGGAUAUCUGGAAACAGAGAAGGUGCAACAUUAUCAGCAGUGAUGUUGCUGACC | 247 nM
AGUAUGUAAUAUGGCAUAUUUAGAACUGAAGGAGCGCCGAAUAAGGCAGGUAGGUCGCGGAAAUAUGAGUGAUGUUCAUGUUUAA [KL-SSArg-A25] | 103 nM
GGUAGCAUGGCGGCCGCCACUACAAGUAGUGACCCAAGUGAUGUUUGGAAGCGGGUCCUAAUUGGUAGGACCGGGCCAUGCUACC | 502 nM
AGGAUGUAGUGAUGUUAUAUAAGAAGUAAACGAGGACCGGUACGGCCGCCACUCGAAGCGGCUACUAGCGCGUUGCGAGGUGUGC [ExTryptoA.Ce] | 384 nM
UCAAACGAUGGAAGGAGCGCUCGUCAGUCCUGCGAGUGAUGUUCGUGGGUAAAUAGUCGCGAGCAGGUAGGUCGCCAUCUUAAGC [Bisodi] | 98.1 nM
AUUAAUUUCAGAGGAUAUCGUAAUUUUAUUUAAUUUAUUCAUUUAUGCAGUGAUGUUGCUAAUAUUCGAGAAGGCUGAUUUAUAA [JR_ExcFMNB_Sub007] | 121 nM
CGCACACUUGUUGAUACCAGAAGCCGACCGGAAACAUCAUUGAGUGAUGUUCAAGCUGUUUUCCCUUGGCAGCAAACGAGUGGUC [theeternabot_exclusion_KL_Theo_B_22] | 120 nM
GGGCUGGUGCUAGGAUAUGCGAUGAAUGCUCAGGAAACCUUGAGUCCGCAGUGAUGUUGCGGCACCGCAGAAGGAGCUUAGGCUC [Esbequ] | 263 nM
CAUAUAUACACUAACCCGUACGGUAGUAAGCGAGGACCGGUACGGCCGCCACUCGAUCGUUUCGUGUUAGCACCAGUGAUGUUGG [theeternabot_sameState_KL_Trp_A_3] | 399 nM
CCAGCGGGCACGGCCGCCACUCUCUCGAGUGAUGUUUGCGGAGUCAGGCCGGCUCAGUACGUCACGAGGACCGGGUGCAAUUUAC [theeternabot_exclusion_KL_Trp_B_40] | 425 nM
ACGUAUAUCAGAGGAUAUCGUAUUAAUAUUUUAUCUAUAUAUAUAUGCAGUGAUGUUGCUAUAAUUCGAGAAGGCUGAUUUACGA [JR_ExcFMNB_Sub011] | 109 nM
UUUAUAAAGUCGGCCGCCACUGGAUUUAUAUUUGUUUAAUCUGGAUCAAAGUGAUGUUUUGAGUCCAGGACCGGGACAUUUGUUA [JR_ExcTryptoB_Sub002] | 123 nM
GAGGGCCCUGUAGGAUAUGAGUCUAGUGAUGUUAGGCGGUCCAUGCGCGUGGCGCGUUAUGCCCUUUUAGAAGGACAGGGCUCUC [#2 Exclusion - FMN B Attempt #21 (HarryS)] | 63 nM
ACGCUAGCUACCGAAAGGUAGCUAGCGAGUGAGGAUAUGUGGAAACACAGAAGGCACAGCGCAGUGAUGUUGUGCGGCGGAAGCG [whbob_SS_FMNA__2th168] | 221 nM
UGUGAUGAGUAGAGUGAUGUUUUGAAGGAUACCAGAGUGUUGUUAUUCCCUUGGCAGCUUGAGUGAUGUUUGAUGUUGUUGUUGU [rcrrmullin] | 221 nM
UAGUGGUAGACCAGAUCUACCACUAGGGAUACCAGCCUCGGUCGAGGCCCUUGGCAGCCCAGCGGGUCCAGUGAUGUUGGAUGUC [Raanza] | 256 nM
AUGUGGAGCGACGUUUAGAGAAACCGGGAAGGAGCGCGGAUAACCGCAGGUAGGUCGCCUGGUUGCCAGUGAUGUUGGCGACGUG [Exclusion Arg A GF 25] | 222 nM
UGUCAUUGGUCUGAUACCAGUUAGACCGAUAGGUCAAAACUGGAGUGAUGUUCCCAAAAUAACCCUUGGCAGCAGACCGAUGACU [TheoBS 3 #SwitchBubble #StaticStem] | 149 nM
